Assay [1] has as its target T1, GFP‐tagged human NOP receptor in HEK cells (HEK_(hNOP‐GFP)) (human, UniProt P41146 1-370). In words: cell-based or functional assay.
In assay [2] the target is T2, human N/OFQ peptide (NOP) receptor, recombinant in HEK cells (HEK_(hNOP)) (human, UniProt P41146 1-370).
T2 construct: nociceptin/orphanin FQ (N/OFQ) peptide receptor (NOP), human, recombinant in HEK cells, no GFP; also called HEKNOP; source: HEK cells expressing the recombinant NOP receptor; live cells on coverslips (confocal) and radioligand displacement
T2 sequence (P41146 whole entry): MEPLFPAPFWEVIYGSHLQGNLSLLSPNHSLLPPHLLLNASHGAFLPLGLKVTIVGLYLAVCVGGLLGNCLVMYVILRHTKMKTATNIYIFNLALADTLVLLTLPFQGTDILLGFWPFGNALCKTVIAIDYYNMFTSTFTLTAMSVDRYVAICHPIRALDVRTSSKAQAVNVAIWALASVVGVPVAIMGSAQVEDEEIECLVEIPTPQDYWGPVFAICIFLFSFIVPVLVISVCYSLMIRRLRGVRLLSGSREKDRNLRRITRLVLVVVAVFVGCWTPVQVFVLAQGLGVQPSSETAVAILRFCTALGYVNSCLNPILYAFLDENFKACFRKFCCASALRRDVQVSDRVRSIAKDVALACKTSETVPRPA
In words: confocal microscopy of a fluorescent ligand on live cells; N/OFQ_(ATTO594) added cumulatively (1 pM-100 nM) to HEK_(hNOP) or HEK_(hNOP-GFP) cells on coverslips, 5 min at 4°C in Krebs buffer pH 7.4, washed, imaged with the 594 nm laser; corrected total cell fluorescence; saturation curve. Conditions: one partner purified.

The target in assay [3] is T1, GFP‐tagged human NOP receptor in HEK …. Described as above. Conditions: one partner purified.
For assay [4], the target named is T2, human N/OFQ peptide (NOP) receptor, …. In words: radioligand binding; displacement of [3H]-N/OFQ in HEK_(hNOP) and HEK_(hNOP-GFP) cells, room temperature. Particulars: one partner purified.
The target in assay [5] is T1, GFP‐tagged human NOP receptor in HEK …. The assay is described as above. Conditions: one partner purified.
For assay [6], the target named is T3, human N/OFQ peptide (NOP) receptor, recombinant in CHO cells (CHO_(hNOP)) (human, UniProt P41146 1-370).
T3 construct: nociceptin/orphanin FQ (N/OFQ) peptide receptor (NOP), human, recombinant in CHO cells; used as cell membranes; source: CHO cells, stably transfected, cell membranes
T3 sequence (P41146 whole entry): as above
Put plainly: radioligand binding; displacement of ~0.8 nM [3H]-N/OFQ from CHO_(hNOP) membranes (20-40 ug protein) by 1 pM-10 uM ligand; 50 mM Tris-HCl pH 7.4 with 0.5% BSA, room temperature, 1 h, vacuum filtration; non-specific binding with 1 uM N/OFQ. Particulars: one partner purified.

T1 sequence (P41146 whole entry): as above

Turning to FGGFTGARKSARKLANQC (ATTO 594 on Cys18; C-terminal amide (NH2)) [[Cys(ATTO 594)^18]N/OFQ‐NH2], the “pEC50, inhibition of forskolin-stimulated cAMP formation in HEK_(hNOP-GFP) cells, 0.1 pM-1 μM, 37°C, 15 min” value in assay [1] worked out at 9.73. The pKd (usually the negative decadic logarithm of the Kd, by convention in mol/L) in assay [2] was found to be 9.51; in assay [3], 8.53. Also, the results for the pKi in assay [4], in assay [5] and in assay [6] were 9.14, 8.98 and 9.21, respectively.

These data come from paper PMC6255954 (British Journal of Pharmacology, 2018).
